Assay results as given in patent US12099068B2, “Biomarkers for graft-versus-host disease” (Incyte Corporation, priority 2018, dated 2024).

Test system: plasma proteins
Experiment: Plasma proteins modulated between baseline and day 28 in responders (CR, VGPR, PR; n = 19), Example 6 (Table 13)
Assay type: in vivo, human
Details: plasma protein (OLINK NPX); responders (CR, VGPR, PR; n = 19); itacitinib 200 mg or 300 mg QD with corticosteroids; day 28 vs baseline
Experimental: Due to the limited sample size, steroid-naive (N=10) and steroid-refractory (N=18) patients were combined for further analysis. Broad proteomic analysis of over 1000 proteins was conducted by OLINK Proteomics (Watertown, MA) using a proximity extension assay as described by the manufacturer. Data are presented as normalized protein expression (NPX) in log 2 scale. Statistical differences were evaluated using unpaired and paired t tests, one-way […] (ANOVA), and Pearson Correlation. Significance was conferred when P<0.05.
Longitudinal differences in protein expression were analyzed by evaluating plasma samples from baseline/screening and day 28.

Molecule | Fold Change, Decreased Expression from Baseline to Day 28
ANG-1 (protein, UniProt Q15389 16-498, looked up) Angiopoietin-1: HIGCSNQRRSPENSGRRYNRIQHGQCAYTFILPEHDGNCRESTTDQYNTNALQRDAPHVEPDFSSQKLQHLEHVMENYTQWLQKLENYIVENMKSEMAQIQQNAVQNHTATMLEIGTSLLSQTAEQTRKLTDVETQVLNQTSRLEIQLLENSLSTYKLEKQLLQQTNEILKIHEKNSLLEHKILEMEGKHKEELDTLKEEKENLQGLVTRQTYIIQELEKQLNRATTNNSVLQKQQLELMDTVHNLVNLCTKEGVLLKGGKREEEKPFRDCADVYQAGFNKSGIYTIYINNMPEPKKVFCNMDVNGGGWTVIQHREDGSLDFQRGWKEYKMGFGNPSGEYWLGNEFIFAITSQRQYMLRIELMDWEGNRAYSQYDRFHIGNEKQNYRLYLKGHTGTAGKQSSLILHGADFSTKDADNDNCMCKCALMLTGGWWFDACGPSNLNGMFYTAGQNHGKLNGIKWHYFKGPSYSLRSTTMMIRPLDF | −1.7898
IL-5R-alpha (protein, UniProt Q01344 21-420, looked up) Interleukin-5 receptor …: DLLPDEKISLLPPVNFTIKVTGLAQVLLQWKPNPDQEQRNVNLEYQVKINAPKEDDYETRITESKCVTILHKGFSASVRTILQNDHSLLASSWASAELHAPPGSPGTSIVNLTCTTNTTEDNYSRLRSYQVSLHCTWLVGTDAPEDTQYFLYYRYGSWTEECQEYSKDTLGRNIACWFPRTFILSKGRDWLAVLVNGSSKHSAIRPFDQLFALHAIDQINPPLNVTAEIEGTRLSIQWEKPVSAFPIHCFDYEVKIHNTRNGYLQIEKLMTNAFISIIDDLSKYDVQVRAAVSSMCREAGLWSEWSQPIYVGNDEHKPLREWFVIVIMATICFILLILSLICKICHLWIKLFPPIPAPKSNIKDLFVTTNYEKAGSSETEIEVICYIEKPGVETLEDSVF | −1.6599
STX6 (protein, UniProt O43752 2-255, looked up) Syntaxin-6: SMEDPFFVVKGEVQKAVNTAQGLFQRWTELLQDPSTATREEIDWTTNELRNNLRSIEWDLEDLDETISIVEANPRKFNLDATELSIRKAFITSTRQVVRDMKDQMSTSSVQALAERKNRQALLGDSGSQNWSTGTTDKYGRLDRELQRANSHFIEEQQAQQQLIVEQQDEQLELVSGSIGVLKNMSQRIGGELEEQAVMLEDFSHELESTQSRLDNVMKKLAKVSHMTSDRRQWCAIAILFAVLLVVLILFLVL | −1.4715
PPP1R2 (protein, UniProt P41236 2-205, looked up) Protein phosphatase inhibitor …: AASTASHRPIKGILKNKTSTTSSMVASAEQPRGNVDEELSKKSQKWDEMNILATYHPADKDYGLMKIDEPSTPYHSMMGDDEDACSDTEATEAMAPDILARKLAAAEGLEPKYRIQEQESSGEEDSDLSPEEREKKRQFEMKRKLHYNEGLNIKLARQLISKDLHDDDEDEEMLETADGESMNTEESNQGSTPSDQQQNKLRSS | −1.3339
CRKL (protein, UniProt P46109 1-303, looked up) Crk-like protein: MSSARFDSSDRSAWYMGPVSRQEAQTRLQGQRHGMFLVRDSSTCPGDYVLSVSENSRVSHYIINSLPNRRFKIGDQEFDHLPALLEFYKIHYLDTTTLIEPAPRYPSPPMGSVSAPNLPTAEDNLEYVRTLYDFPGNDAEDLPFKKGEILVIIEKPEEQWWSARNKDGRVGMIPVPYVEKLVRSSPHGKHGNRNSNSYGIPEPAHAYAQPQTTTPLPAVSGSPGAAITPLPSTQNGPVFAKAIQKRVPCAYDKTALALEVGDIVKVTRMNINGQWEGEVNGRKGLFPFTHVKIFDPQNPDENE | −1.8003
PRTN3 (protein, UniProt P24158 28-248, looked up) Myeloblastin: IVGGHEAQPHSRPYMASLQMRGNPGSHFCGGTLIHPSFVLTAAHCLRDIPQRLVNVVLGAHNVRTQEPTQQHFSVAQVFLNNYDAENKLNDVLLIQLSSPANLSASVATVQLPQQDQPVPHGTQCLAMGWGRVGAHDPPAQVLQELNVTVVTFFCRPHNICTFVPRRKAGICFGDSGGPLICDGIIQGIDSFVIWGCATRLFPDFFTRVALYVDWIRSTLR | −1.7658
MAP2K6 (protein, UniProt P52564 1-334, looked up) Dual specificity …: MSQSKGKKRNPGLKIPKEAFEQPQTSSTPPRDLDSKACISIGNQNFEVKADDLEPIMELGRGAYGVVEKMRHVPSGQIMAVKRIRATVNSQEQKRLLMDLDISMRTVDCPFTVTFYGALFREGDVWICMELMDTSLDKFYKQVIDKGQTIPEDILGKIAVSIVKALEHLHSKLSVIHRDVKPSNVLINALGQVKMCDFGISGYLVDSVAKTIDAGCKPYMAPERINPELNQKGYSVKSDIWSLGITMIELAILRFPYDSWGTPFQQLKQVVEEPSPQLPADKFSAEFVDFTSQCLKKNSKERPTYPELMQHPFFTLHESKGTDVASFVKLILGD | −1.8184
PILRA (protein, UniProt Q9UKJ1 20-303, looked up) Paired immunoglobulin-like …: QPSGSTGSGPSYLYGVTQPKHLSASMGGSVEIPFSFYYPWELATAPDVRISWRRGHFHRQSFYSTRPPSIHKDYVNRLFLNWTEGQKSGFLRISNLQKQDQSVYFCRVELDTRSSGRQQWQSIEGTKLSITQAVTTTTQRPSSMTTTWRLSSTTTTTGLRVTQGKRRSDSWHISLETAVGVAVAVTVLGIMILGLICLLRWRRRKGQQRTKATTPAREPFQNTEEPYENIRNEGQNTDPKLNPKDDGIVYASLALSSSTSPRAPPSHRPLKSPQNETLYSVLKA | −1.2582
CCL5 (protein, UniProt P13501 24-91, looked up) C-C motif chemokine 5: SPYSSDTTPCCFAYIARPLPRAHIKEYFYTSGKCSNPAVVFVTRKNRQVCANPEKKWVREYINSLEMS | −1.6357
DFFA (protein, UniProt O00273 1-331, looked up) DNA fragmentation factor …: MEVTGDAGVPESGEIRTLKPCLLRRNYSREQHGVAASCLEDLRSKACDILAIDKSLTPVTLVLAEDGTIVDDDDYFLCLPSNTKFVALASNEKWAYNNSDGGTAWISQESFDVDETDSGAGLKWKNVARQLKEDLSSIILLSEEDLQMLVDAPCSDLAQELRQSCATVQRLQHTLQQVLDQREEVRQSKQLLQLYLQALEKEGSLLSKQEESKAAFGEEVDAVDTGISRETSSDVALASHILTALREKQAPELSLSSQDLELVTKEDPKALAVALNWDIKKTETVQEACERELALRLQQTQSLHSLRSISASKASPPGDLQNPKRARQDPT | −1.31
IRAK1 (protein, UniProt P51617 1-712, looked up) Interleukin-1 …: MAGGPGPGEPAAPGAQHFLYEVPPWVMCRFYKVMDALEPADWCQFAALIVRDQTELRLCERSGQRTASVLWPWINRNARVADLVHILTHLQLLRARDIITAWHPPAPLPSPGTTAPRPSSIPAPAEAEAWSPRKLPSSASTFLSPAFPGSQTHSGPELGLVPSPASLWPPPPSPAPSSTKPGPESSVSLLQGARPFPFCWPLCEISRGTHNFSEELKIGEGGFGCVYRAVMRNTVYAVKRLKENADLEWTAVKQSFLTEVEQLSRFRHPNIVDFAGYCAQNGFYCLVYGFLPNGSLEDRLHCQTQACPPLSWPQRLDILLGTARAIQFLHQDSPSLIHGDIKSSNVLLDERLTPKLGDFGLARFSRFAGSSPSQSSMVARTQTVRGTLAYLPEEYIKTGRLAVDTDTFSFGVVVLETLAGQRAVKTHGARTKYLKDLVEEEAEEAGVALRSTQSTLQAGLAADAWAAPIAMQIYKKHLDPRPGPCPPELGLGLGQLACCCLHRRAKRRPPMTQVYERLEKLQAVVAGVPGHSEAASCIPPSPQENSYVSSTGRAHSGAAPWQPLAAPSGASAQAAEQLQRGPNQPVESDESLGGLSAALRSWHLTPSCPLDPAPLREAGCPQGDTAGESSWGSGPGSRPTAVEGLALGSSASSSSEPPQIIINPARQKMVQKLALYEDGALDSLQLLSSSSLPGLGLEQDRQGPEESDEFQS | −1.2986
